Measured values published in a protein production outcome set (Wang et al. 2014).

Test: label from the status in PepcDB records

**Q.** For “MGESVRTLSYGSWPSPVDAALAAAHDGRPDDVGFVGDEVWWTAPRPTEGGRRTLVRRHADGTEEPVLPAPWNVRSRVIEYGGRPWGAATTDSGPLVVFVNFADQRLYAFTPGGGEPRPLTPLSAVGGGLRWIEPDPRPERGEVWCVLEEFTGEGPTDVRRVPVAVPLDGSAADDRGAVRELAPERHRFVTGPRLSPDGRRAAWLAWDHPRMPWDGTELIVAEVGPEGTFQAARTVAGGPEESIAQADWAPDGTLLYASDRTGWWNLYRDGRPLCPREEEFGGPLWKLGQRWFAPLDSGLIAVLHGRGAAVLGILDPETGEVVDAAGPWTEFAPALAAHGERVAAVGASPRSGYEVVELDARTGRARVIGAPHEDATDPEFYPRPRIRTFTGPGGREIHAHVYPPHHPGCRAPDGELPPYVIWAHGGPTSRSPLVLDLEIAYFTSRGIGVAEVNYGGSSGHGREYRNRLREQWGVVDVEDCAAVALALADEGTADRARLAVRGGSAGGWTSAASLATTDVYACGTISYPILDLTGWGTGETHDFESQYLESLIGPYAEVPDRYTDRSPAEHAERVTAPFLLLQGLDDVICPPVQCERFLDRMAGRGVPHAYLAFEGEGHGFRRAETMVRALEAELSLYAQVFGLTPPGVPVLELTR”, which protein production is on record?
**A.** The protein production was “failed”.

**Q.** For “MGETAGREHGTVTRSAEYIGSFPVDDSCLDDQIQQLHTQLKSLKNCKSKRTVSLRFSVKGVKVYDEDETTLLMAHAMCRVSLSTARPSDAQFAFASHNPGNSDAQLYCHLFRARHARAAQFLNLLLCRCFQLYFLEKHPEEAQEECSGKKPSRAPSLLNQGFPLSVSALVSFRRAPTQGLLPGAKLFSQQSTEQVSSPEEGPTSSPTIVRKMAIRTKELRSGAYRSFTFTPLKQRHLQDKLSAPQGGMSVHRTLSRLKEFLRKGTSHCKGMHVSSSQFGRNRRSTGSSCVVLGWRV”, which protein production is on record?
**A.** The protein production was “failed”.

**Q.** With “MGEVKDLGMADHGGFDLKIGARVVLEDVKLGDSIAVNGTCLTVTEFNAEEFTVGLAPETLRKTSLEELKKGSPVNLERALQPVSRMGGHVVQGHVDGTGVIESMEVEGDSLWVKVKADKGLLKYIVPKGFVAVDGTSLTVVDVFDEESCFNFMMIAYTQQNVVIPTKKIGQKVNLEVDIMGKYVERLLTSGGFSKGN” as the sequence, how does the protein production read?
**A.** Its protein production is “failed”.

**Q.** With “MGFHDYIEETKNIFNRLYPDNKITDIDYEGPTIVVYTKDPELFAKRDDLVRQIAQEIRRRIAIRSDPSILLPEDQARESIEKIIPKEAGLEDIYFEPDTGEVIIELDEPSIVTARGTDYVQEIKSRTQWSPRIVRAPPMYSRTVKEVREFMREVKQERREFLHNLGVKLSGPPMVGETWVRLTALGGHSEVGRSATLVSTKNSKVLIDCGMMNVGPDADPWDAAPYLYVPEVQPLSTIDAVILTHAHLDHSGLLPLLFKYGYDGPVYMTPPTRDLAALLQNDYIKVARMEGGKVPYESKYIREELKHTITLRYGETTDITRDMRLTFYNAGHILGSASGHLHIGDGLYNVVLSGDVKFEKTWLFNPANNKFPRAETFMTESTYGGRDDYSFTREEATQTLIDVINRTHDRGGSVLIPVFAVGRSQEVMIVLEDAMRNGRIPQMDVYLDGMIMEAPAIHAAYPEYLNKELREAIMVKKENPFLSPIFKKVETRDRGRK” as the sequence, how does the protein production read?
**A.** Its protein production is “failed”.

**Q.** With “MGFHLRGAIDIPEWLDNVSIISRDGNKELVSILKSQLEGYKIDVNSDPSLAKYWLIINSSSLQQQIVSIGASTNPRQYQLILTIEFMLQTPKGQIIKTPRKVNVSRQLTVNNDRILGSNEEQALLVSEMRRDAAIQIINRLNRPLEHHHHHH” as the sequence, how does the protein production read?
**A.** Its protein production is “not failed”.

**Q.** For “MGFLNKLLSSEGPRKPKVKFDLQKCKVLLKGGENRIRLQKSKLAVCNLLASPVPALKNLFNKNSVKLQQREVAVLLEGGKDELARIRAEQMVRDELLIESYEIVEVLCETLLTRHNLLALNFHATKENPYPPLPPEIAEAVCSIAFASCRLDASELQTLTEMLASRFGPELIDSACAGQPSQRVWGVNSLVNPRLYSKLLYSVPDGNVVLQKLQDIADMFQLEWKAPAEFEELKDHSVLDSTASTPVFSGNAQRARYLPEASSFSDEKIGDDVFCTNESEQTEEGRDPSDDLSARLEALKRNR”, which protein production is on record?
**A.** The protein production was “failed”.

**Q.** Which protein production does the source give for “MGFMIEHWDFSTPMATQETTTAEHIQPNHWYHCERLHPDIRSWLEDNHVPRATVDHLLADESRPSFHPLDDDNFMLILRGINMNENASPEDMLSIRILYFQGALISTRKIPSRAIMEIRQALAEHKGPKSLASLLNQIIEGLNGKIDLYLDTIEETLNEFDVNDESTYNHIAAQKALISIKRFIRPQQYAIRDLIESESELVTSRPHQYRFAHNNITRINETIEFYLGEVALFQDEIKHNRDEKTNKNSYLFTLVATIFLPTSFLTGLL” here?
**A.** The protein production was “not failed”.

**Q.** Which protein production does the source give for “MGFSKVPLIWLCHPKIIAIDSKHVEVRIPLRRRTKNHLNSMYFGALAVGADVAGGFLAMSKAQEKGEAISLAFKGVKAEFLKRPEADVHFVCNDGHVIDEMLDHTIATGERVNRDVKIIALCPSLHGQEPMAEFALTLSLEHHHHHH” here?
**A.** Its protein production is “failed”.

**Q.** With “MGFTQNSVYFLNVSEALATPQDKLHTVRLFGTVAADGLTMLDGAPGVRFRLEDKDNTSKTVWVLYKGAVPDTFKPGVEVIIEGGLAPGEDTFKARTLMTKCPLEHHHHHH” as the sequence, how does the protein production read?
**A.** Its protein production is “not failed”.

**Q.** For “MGFYLGITALKSIGNNKNNNIDNENNHQAKILTFPVSFTCRTFLPARGDILQGTVKKVLWNGAFIRSGPLRYAYLSLLKMPHYHYVHSPLSEDEKPHFQKDDLSKIAVGVVVRFQVLAVRFKERPHKRRNDYYVLATLEGNGSFGP”, which protein production is on record?
**A.** Its protein production is “not failed”.

**Q.** Which protein production does the source give for “MGFYQGPDNRKITGGLKGKHRDKRKYEIGNPPTFTTLSAEDIRIKDRTLGGNFKVRLKYTTTANVLDPATNTAKKVKILEILETPANKELARRGIIIRGAKIRTEAGLAVVTSRPGQDGVINAVLLKNESQRSLEHHHHHH” here?
**A.** Its protein production is “failed”.

**Q.** For “MGGGGHGGGITYKGVTVHTPKTWHTVTGKGLCAVMWFWILYRAKQDGPVVMGWRHPWDGHGDHGHGDHH”, which protein production is on record?
**A.** The protein production was “failed”.

**Q.** Which protein production does the source give for “MGGIIIIDVHCHLDFKDFNRNREEVIERARSKLRAVIDSGVGLGGNRRALELASLNPGFICPTMGFHPVDASKARQDLIGEVVSQIESNIDLIVAVGETGMDFHHTRDEEGRRRQEETFRVFVELAAEHEMPLVVHARDAEERALETVLEYRVPEVIFHCYGGSIETARRILDEGYYISISTLVAFSEHHMELVRAIPLEGMLTETDSPYLSPFRGKRNEPAFVEEAVRAIARIKDMDLEDVDSITTANAERVFGL” here?
**A.** Its protein production is “failed”.

**Q.** Which protein production does the source give for “MGGKYSRGEERRPLGFPGFSALCCCQKTNREETPLGFCDIKARRSNLSFGREDPAYLDMAYFPDNDLHMAACAGDLPFVRLYFTLGKYEVNHRDRENRNAMHFACFYGHLELVIYLWRRGCEINVCDNHNITPLMKAVQSWEDKIVCFLLEHHANLHIKDSMGNTALHYAVYSGNLATAARLLQYGADIEERTKDNLTPLLLALRENRLKMAQFLVRMEASVHAVDSQRRNSLMYAVRCDSPVMVNLILQQGVDINLKDLFGWTALRYAIEGDRDVRTMLLELRKRNRAFQSSENSSIRLINKADAEVTSPTANEKVIEMQDPFTTNEASVEKTQTRRPAESELEVFSLEEEISYKETINNLQQNPGQRSAKTDAATENRSP” here?
**A.** The protein production was “failed”.

**Q.** Which protein production does the source give for “MGGSFYPCLSVSKRAIGKNTAYSTLYYLQYTIKKASFSNVIYTSENNNIFRVSLLTFSFFYFTRTVKNSHMPTTTLEQQRTRQGVLFALGAYTIWGIAPIYFKTISEVSPLEILSHRVIWSFFFLAALLSFSKGWATVINTLKDKKKMTYLITTSVLIGANWLIFIWAVNAGHMLDASLGYYINPLLNVVLGMIFLGERLRRLQWVAVLFASAGVLIQLITFGSIPVVAIALACSFGFYGLLRKKVAMDAQTGLFIETLVMLPLTLIYLLFIADSATSNFSENTLNLNLLLIAAGIITTVPLLCFTGAATRLKLSTLGFFQYIGPSLMFLLAVGLYGEEFSADKAITFGFIWGALVIFTTDAFMARNKKNK” here?
**A.** The protein production was “failed”.

**Q.** For “MGHAALDAVLPDGGWPRRALTELLLPAHGIGEIALLLPTLARMTGAGSRVVLVAPPYVPYAPAWQAGGVALQQLEIVQAEPRDALWAFEQCLRSGACAAVLGWPQTGDARALRRLQVAADSGNCCAFALRDRRHAVNASPLEHHHHHH”, which protein production is on record?
**A.** Its protein production is “failed”.

**Q.** With “MGHETKAQLKDYVEVKIMKIKTTVAALSVLSVLSFGAFAADSIDAAQAQNREAIGTVSVSGVASSPMDIREMLNKKAEEKGATAYQITEARSGDTWHATAELYKLEHHHHHH” as the sequence, how does the protein production read?
**A.** Its protein production is “not failed”.

**Q.** For “MGHHHHHHHHHHSSGHIDDDDKHMEVSVLIPAAGNGLRLGRGPKAFLQVGGRTLLEWTLAAFRDAAEVLVALPPGAEPPKGLGAVFLEGGATRQASVARLLEAASLPLVLVHDVARPFVSRGLVARVLEAAQRSGAAVPVLPVPDTLMAPEGEAYGRVVPREAFRLVQTPQGFFTALLREAHAYARRKGLEASDDAQLVQALGYPVALVEGEATAFKITHPQDLVLAEALARVWSA”, which protein production is on record?
**A.** The protein production was “not failed”.

**Q.** Which protein production does the source give for “MGHHHHHHSHAESHLQSSLITASQFFEIWLHFDADGSGYLEGKELQNLIQELQQARKKAGLELSPEMKTFVDQYGQRDDGKIGIVELAHVLPTEENFLLLFRCQQLKSCEEFMKTWRKYDTDHSGFIETEELKNFLKDLLEKANKTVDDTKLAEYTDLMLKLFDSNNDGKLELTEMARLLPVQENFLLKFQGIKMCGKEFNKAFELYDQDGNGYIDENELDALLKDLCEKNKQDLDINNITTYKKNIMALSDGGKLYRTDLALILCAGDN” here?
**A.** Its protein production is “not failed”.

**Q.** For “MGHHHHHHSHGQTFAGVIRGVQSYGFFVQIEALQVEGLVHVSSPKDDWYEYRSRQQRLIGRKNRRQFGLGDRVEVEIRNVDYYRQQIDLGVLPLPEAQSETSDREP”, which protein production is on record?
**A.** The protein production was “not failed”.

**Q.** Which protein production does the source give for “MGHHHHHHSHKPIKVEKTVTINKPADELYRYWHNFENLPTFMKHLKSVKVYNEKRSHWIANAPLGNSVEWDADILEDRENEFISWASAEGADVENSGFVRFQKAPGDVPGQAASRLRGTEVKVVLEYNLPGGALAAVVAKLFGEEPEQQIGDELRRFKM” here?
**A.** Its protein production is “not failed”.

**Q.** Which protein production does the source give for “MGHHHHHHSHLSPDRRASLLTSLMLVKRDYRYDRVLFWGRILGLVADYYIAQGLSEDQLAPRKTLYSLNCTEWSLLPPATEEMVAQSSVVKGRFMGDPSYEYEHTELQKVNEGEKVFEEEIVVQIKEETRLVSVIDQIDKAVAIIPRGALFKTPFGPTHVNRTFEGLSLSEAKKLSSYFHFREPVELKNKTLLEKADLDPSLDFMDSLEHDIPKGSWSIQMERGNALVVLRSLLWPGLTFYHAPRTKNYGYVYVGTGEKNMDLPFML” here?
**A.** Its protein production is “failed”.

**Q.** With “MGHHHHHHSHMAFVTRQFMRSVSSSSTASASAKKIIVKHVTVIGGGLMGAGIAQVAAATGHTVVLVDQTEDILAKSKKGIEESLRKVAKKKFAENPKAGDEFVEKTLSTIATSTDAASVVHSTDLVVEAIVENLKVKNELFKRLDKFAAEHTIFASNTSSLQITSIANATTRQDRFAGLHFFNPVPVMKLVEVIKTPMTSQKTFESLVDFSKALGKHPVSCKDTPGFIVNRLLVPYLMEAIRLYERGDASKEDIDTAMKLGAGYPMGPFELLDYVGLDTTKFIVDGWHEMDAENPLHQPSPSLNKLVAENKFGKKTGEGFYKYK” as the sequence, how does the protein production read?
**A.** The protein production was “not failed”.

**Q.** Which protein production does the source give for “MGHHHHHHSHMAQPLACARGRSQRLVCDPKAASALPDLAPDVFVLRVRLEETGEMFRVANCRGDMTVRELKEELDLMVGIPFNLQRLQYLDEGVLMDDTTLKFHDVVPGGIISLCIWHHDGWTEL” here?
**A.** Its protein production is “failed”.

**Q.** With “MGHHHHHHSHMDALSPSPAIPSNTDYPGPHSFDVSFQQSSTAKSATWTYSTELKKLYCQIAKTCPIQIKVMTPPPQGAVIRAMPVYKKAEHVTEVVKRCPNHELSREFNEGQIAPPSHLIRVEGNSHAQYVEDPITGRQSVLVPYEPPQVGTEFTTVLYNFMCNSSCVGGMNRRPILIIVTLETRDGQVLGRRCFEARICACPGRDRKADEDSIRKQQVSDSTKNGDGTKRPFRQNTHGIQM” as the sequence, how does the protein production read?
**A.** The protein production was “failed”.
